# Results from the supplement of paper PMC9732359.
# ± gives the uncertainty stated by the source.
# Assay: protein stability index of a GFP-peptide fusion (yeast GPS) (PSI 1-4); higher = more stable; sorted into four equal gates, so the index is relative within each strain
# In short: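 Mid-log yeast cultures in leucine-free medium, carrying a pooled plasmid library, were sorted into four equal gates by their GFP/Cherry fluorescence ratio. Each plasmid expressed Cherry along with GFP fused upstream of a tiled 17-residue yeast protein peptide. Plasmids recovered from each gate were PCR-amplified and Illumina-sequenced, with reads assigned to strains by barcodes. The protein stability index was obtained by summing each gate's read frequency weighted by its gate number.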
sequence,measurement,setting,value
SLQYIERQQDELENFLD [YJL041W/NSP1],protein stability index,doa10∆,3.1 ± 0.1
same,protein stability index,pdr5∆,3.04 ± 0.14
same,protein stability index,san1∆,3.43 ± 0.096
same,protein stability index,ubr1∆,3.12 ± 0.054
SLRRQVKKLEIQQHARY [RPL43A],protein stability index,doa10∆,2.75 ± 0.11
same,protein stability index,pdr5∆,2.89 ± 0.1
same,protein stability index,san1∆,2.96 ± 0.077
same,protein stability index,ubr1∆,3.29 ± 0.09
SLTEKFSQTVADNNDLQ [ECM29],protein stability index,doa10∆,2.48 ± 0.049
same,protein stability index,pdr5∆,2.71 ± 0.056
same,protein stability index,san1∆,2.64 ± 0.068
same,protein stability index,ubr1∆,2.35 ± 0.048
SLTQSVCDLALRFGEGA [PUP2],protein stability index,doa10∆,2.66 ± 0.19
same,protein stability index,pdr5∆,3.34 ± 0.21
same,protein stability index,ubr1∆,3.11 ± 0.21
SLYIFFTTLLESKQDGL [YML103C/NUP188],protein stability index,doa10∆,2.29 ± 0.12
same,protein stability index,pdr5∆,1.42 ± 0.085
same,protein stability index,san1∆,1.25 ± 0.1
same,protein stability index,ubr1∆,1.19 ± 0.036
SMFLRIDYSNSQIRLYA [RGR1],protein stability index,doa10∆,2.9 ± 0.076
same,protein stability index,pdr5∆,2.44 ± 0.066
same,protein stability index,san1∆,2.4 ± 0.068
same,protein stability index,ubr1∆,2.44 ± 0.043
SMLFKTSQKMTSTVNRL [MCD1],protein stability index,doa10∆,2.22 ± 0.073
same,protein stability index,pdr5∆,2.77 ± 0.15
same,protein stability index,san1∆,2.33 ± 0.14
same,protein stability index,ubr1∆,3.04 ± 0.14
SMNATMRNFSKQNQDSK [YDL088C/ASM4],protein stability index,doa10∆,2.86 ± 0.14
same,protein stability index,pdr5∆,2.99 ± 0.24
same,protein stability index,san1∆,1.94 ± 0.27
same,protein stability index,ubr1∆,2.84 ± 0.24
SMVYSNVGELIEKNVME [RRP4],protein stability index,doa10∆,2.06 ± 0.052
same,protein stability index,pdr5∆,2.66 ± 0.053
same,protein stability index,san1∆,2.55 ± 0.056
same,protein stability index,ubr1∆,2.03 ± 0.048
SNDERIVKRLYEYGAVS [BRR2],protein stability index,doa10∆,2.71 ± 0.076
same,protein stability index,pdr5∆,2.97 ± 0.07
same,protein stability index,san1∆,3.14 ± 0.056
same,protein stability index,ubr1∆,3.14 ± 0.049
SNDPDVNNTRRRVYNRV [BRN1],protein stability index,doa10∆,2.81 ± 0.14
same,protein stability index,pdr5∆,3.52 ± 0.19
same,protein stability index,san1∆,3 ± 0.14
same,protein stability index,ubr1∆,3.69 ± 0.24
SNDRVNPLIELTPIQKK [ITC1],protein stability index,doa10∆,2.92 ± 0.2
same,protein stability index,pdr5∆,1.99 ± 0.13
same,protein stability index,san1∆,2.15 ± 0.27
same,protein stability index,ubr1∆,2.65 ± 0.11
SNDVLKPETPKGPIIIS [SIR2],protein stability index,doa10∆,3 ± 0.11
same,protein stability index,pdr5∆,2.92 ± 0.077
same,protein stability index,san1∆,2.78 ± 0.071
same,protein stability index,ubr1∆,2.7 ± 0.077
SNETIGEIQLLFQRQKL [IRR1],protein stability index,doa10∆,2.61 ± 0.22
same,protein stability index,pdr5∆,2.8 ± 0.17
same,protein stability index,san1∆,3.14 ± 0.14
SNGEFIPHIFYSLHQIR [CSE2],protein stability index,doa10∆,2.02 ± 0.07
same,protein stability index,pdr5∆,2.1 ± 0.054
same,protein stability index,san1∆,2.12 ± 0.072
same,protein stability index,ubr1∆,2.34 ± 0.057
SNILLNSLTKYPDLKAF [MED1],protein stability index,doa10∆,1.98 ± 0.14
same,protein stability index,pdr5∆,2.41 ± 0.085
same,protein stability index,san1∆,2.24 ± 0.2
same,protein stability index,ubr1∆,1.71 ± 0.094
SNININVNNNNIGQQQV [SWI1],protein stability index,doa10∆,2.64 ± 0.19
same,protein stability index,pdr5∆,3.01 ± 0.2
same,protein stability index,san1∆,3.07 ± 0.074
same,protein stability index,ubr1∆,3.13 ± 0.21
SNKILVYESEMEQCKQR [YIL149C/MLP2],protein stability index,doa10∆,2.72 ± 0.17
same,protein stability index,pdr5∆,2.95 ± 0.17
same,protein stability index,san1∆,2.18 ± 0.28
same,protein stability index,ubr1∆,3.16 ± 0.26
SNKPCMGIVQDTLCGIR [RPO21],protein stability index,doa10∆,2.45 ± 0.065
same,protein stability index,pdr5∆,1.8 ± 0.067
same,protein stability index,san1∆,2.15 ± 0.073
same,protein stability index,ubr1∆,1.77 ± 0.088
SNLKISLVKYPELLDSL [SWI1],protein stability index,doa10∆,2.76 ± 0.074
same,protein stability index,pdr5∆,2.69 ± 0.058
same,protein stability index,san1∆,2.71 ± 0.074
same,protein stability index,ubr1∆,2.96 ± 0.056
SNNTAATADTTHLHEAL [NUT1],protein stability index,doa10∆,2.37 ± 0.076
same,protein stability index,pdr5∆,3.07 ± 0.084
same,protein stability index,san1∆,3.15 ± 0.11
same,protein stability index,ubr1∆,3.02 ± 0.042
SNSSSSPPIIDLFSNNN [MED1],protein stability index,doa10∆,2.77 ± 0.06
same,protein stability index,pdr5∆,2.82 ± 0.05
same,protein stability index,san1∆,2.83 ± 0.042
same,protein stability index,ubr1∆,2.9 ± 0.042
SNTIDELSTDIILKTRQ [SRB7],protein stability index,doa10∆,2.96 ± 0.076
same,protein stability index,pdr5∆,3.19 ± 0.083
same,protein stability index,san1∆,3.18 ± 0.089
same,protein stability index,ubr1∆,3.03 ± 0.063
SNTSTSKMLDAASSQVS [SNF12],protein stability index,doa10∆,2.51 ± 0.052
same,protein stability index,pdr5∆,2.8 ± 0.042
same,protein stability index,san1∆,2.5 ± 0.12
same,protein stability index,ubr1∆,2.83 ± 0.051
SNVLDGNKNQFEPSISR [LRP1],protein stability index,doa10∆,3 ± 0.086
same,protein stability index,pdr5∆,2.95 ± 0.074
same,protein stability index,san1∆,3.12 ± 0.046
same,protein stability index,ubr1∆,3.36 ± 0.091
SPAVKKLLQLAGVEDVY [RPS2],protein stability index,doa10∆,1.58 ± 0.062
same,protein stability index,pdr5∆,1.76 ± 0.14
same,protein stability index,ubr1∆,2.05 ± 0.2
SPEESKARSPGIAKPNA [SIR4],protein stability index,doa10∆,3.48 ± 0.075
same,protein stability index,pdr5∆,3.42 ± 0.09
same,protein stability index,san1∆,3.09 ± 0.091
same,protein stability index,ubr1∆,3.38 ± 0.066
SPLNTTTKILGDKILGN [YML103C/NUP188],protein stability index,doa10∆,2.33 ± 0.055
same,protein stability index,pdr5∆,2.63 ± 0.049
same,protein stability index,san1∆,2.45 ± 0.059
same,protein stability index,ubr1∆,2.12 ± 0.028
SPPIIDLFSNNNYNSRI [MED1],protein stability index,doa10∆,2.86 ± 0.071
same,protein stability index,pdr5∆,2.92 ± 0.076
same,protein stability index,san1∆,2.86 ± 0.062
same,protein stability index,ubr1∆,2.94 ± 0.056
SPQKFETNLQTFLPPLL [ECM29],protein stability index,doa10∆,3.01 ± 0.071
same,protein stability index,pdr5∆,2.95 ± 0.06
same,protein stability index,san1∆,3.2 ± 0.04
same,protein stability index,ubr1∆,2.92 ± 0.049
SPSERIEPLEINIQSFK [BRR2],protein stability index,doa10∆,2.51 ± 0.064
same,protein stability index,pdr5∆,2.53 ± 0.046
same,protein stability index,san1∆,2.55 ± 0.047
same,protein stability index,ubr1∆,1.97 ± 0.032
SPTENGVFDPASYAKYL [RPL22A],protein stability index,doa10∆,2.98 ± 0.051
same,protein stability index,pdr5∆,3.19 ± 0.061
same,protein stability index,san1∆,3.08 ± 0.045
same,protein stability index,ubr1∆,2.88 ± 0.043
SPTPIQRITIPNVCNMK [PRP28],protein stability index,doa10∆,1.99 ± 0.074
same,protein stability index,pdr5∆,2.16 ± 0.063
same,protein stability index,san1∆,2.04 ± 0.068
same,protein stability index,ubr1∆,2.09 ± 0.057
SQAFDIVAALPISEKGL [RPP1],protein stability index,doa10∆,2.85 ± 0.18
same,protein stability index,pdr5∆,3.02 ± 0.2
same,protein stability index,san1∆,2.66 ± 0.18
same,protein stability index,ubr1∆,2.66 ± 0.15
SQEQGMGMDLYKTSKAA [FAS1],protein stability index,doa10∆,3.05 ± 0.086
same,protein stability index,pdr5∆,3.15 ± 0.07
same,protein stability index,san1∆,2.72 ± 0.059
same,protein stability index,ubr1∆,3.3 ± 0.057
SQFINDHILFTKTFIFI [SRB8],protein stability index,doa10∆,1.56 ± 0.054
same,protein stability index,pdr5∆,1.48 ± 0.056
same,protein stability index,san1∆,1.47 ± 0.089
same,protein stability index,ubr1∆,1.41 ± 0.033
SQFLKRVHANLQCISQI [SNF11],protein stability index,doa10∆,1.17 ± 0.043
same,protein stability index,pdr5∆,1.25 ± 0.041
same,protein stability index,san1∆,1.21 ± 0.07
same,protein stability index,ubr1∆,1.2 ± 0.057
SQHKKILEELDFVRNEL [SMC3],protein stability index,doa10∆,3.35 ± 0.14
same,protein stability index,pdr5∆,3.09 ± 0.096
same,protein stability index,san1∆,3.2 ± 0.08
same,protein stability index,ubr1∆,3.01 ± 0.057
SQRAQVVTMSVKSVNDP [RPC37],protein stability index,doa10∆,2.17 ± 0.073
same,protein stability index,pdr5∆,2.4 ± 0.11
same,protein stability index,san1∆,1.89 ± 0.08
same,protein stability index,ubr1∆,1.97 ± 0.1
SQSSAAAGASVDDKRRN [RPN6],protein stability index,doa10∆,3.38 ± 0.2
same,protein stability index,pdr5∆,3.41 ± 0.088
same,protein stability index,san1∆,3.02 ± 0.087
same,protein stability index,ubr1∆,3.25 ± 0.087
SQVKDSVTETESISQTP [SRP68],protein stability index,doa10∆,2.92 ± 0.12
same,protein stability index,pdr5∆,3.02 ± 0.11
same,protein stability index,san1∆,3.22 ± 0.21
same,protein stability index,ubr1∆,2.93 ± 0.084
SQYFKFKNDFNSFYYTS [RPN9],protein stability index,doa10∆,2.1 ± 0.075
same,protein stability index,pdr5∆,2.33 ± 0.06
same,protein stability index,san1∆,2.51 ± 0.084
same,protein stability index,ubr1∆,2.58 ± 0.056
SRCHLVTKDTKKYSSKN [SRP68],protein stability index,doa10∆,3.04 ± 0.092
same,protein stability index,pdr5∆,2.8 ± 0.1
same,protein stability index,san1∆,2.65 ± 0.11
same,protein stability index,ubr1∆,3.12 ± 0.072
SRGAVSGQKAGLIAARR [RPL2A],protein stability index,doa10∆,3.4 ± 0.093
same,protein stability index,pdr5∆,3.32 ± 0.083
same,protein stability index,san1∆,3.27 ± 0.065
same,protein stability index,ubr1∆,3.25 ± 0.097
SRHFASYANLPGTITHG [FAS1],protein stability index,doa10∆,2.75 ± 0.059
same,protein stability index,pdr5∆,2.82 ± 0.055
same,protein stability index,san1∆,2.57 ± 0.055
same,protein stability index,ubr1∆,2.71 ± 0.039
SRILYKAIRGMVSHKTA [RPL16B],protein stability index,doa10∆,1.26 ± 0.057
same,protein stability index,pdr5∆,1.2 ± 0.066
same,protein stability index,san1∆,1.22 ± 0.16
same,protein stability index,ubr1∆,1.25 ± 0.063
SRIRVKIEGCISQVSSI [RPB7],protein stability index,doa10∆,1.6 ± 0.1
same,protein stability index,pdr5∆,1.75 ± 0.083
same,protein stability index,san1∆,1.64 ± 0.11
same,protein stability index,ubr1∆,1.76 ± 0.074
SRNGDFPRTRFEAQIDS [RPN10],protein stability index,doa10∆,3.09 ± 0.12
same,protein stability index,pdr5∆,3.28 ± 0.12
same,protein stability index,san1∆,3.34 ± 0.077
same,protein stability index,ubr1∆,3.23 ± 0.086
SRPATTTRNGFMEAQGA [FAS2],protein stability index,doa10∆,2.28 ± 0.049
same,protein stability index,pdr5∆,2.18 ± 0.046
same,protein stability index,san1∆,2.48 ± 0.065
same,protein stability index,ubr1∆,2.21 ± 0.039
SRSNFQGKHTKFENDEL [LRP1],protein stability index,doa10∆,3.28 ± 0.091
same,protein stability index,pdr5∆,2.99 ± 0.085
same,protein stability index,san1∆,3.02 ± 0.06
same,protein stability index,ubr1∆,3.22 ± 0.064
SRTAADILLRLCVLWDD [YCG1],protein stability index,doa10∆,2.23 ± 0.24
same,protein stability index,ubr1∆,3 ± 0.24
SSAKRSKNTAVSKVQKR [SRP72],protein stability index,doa10∆,2.25 ± 0.11
same,protein stability index,pdr5∆,2.77 ± 0.11
same,protein stability index,san1∆,2.09 ± 0.11
same,protein stability index,ubr1∆,2.32 ± 0.069
